B1: WT anti-insulin scFv (HB125) (antibody)
chain: MAQIQLVQSGPELKKPGETVKISCKASGYTFTDYSMHWVKQAPGKGLKWMDWINTETGVPTYADDFKGRFAFSLETSANTAYLQINDLKNEDTATYFCTRGYGKGYFDVWGAGTTVTVSSAKSTPPSVYPLAPGSGGGGSGGGGSGGGGSQIVLTQSPTIMSASLGERVTMTCTASSSVSSSYLHWYQQKPGSSPKLWIYSTSNLASGVPARFSGSGSGTSYSLTISSMEAEDAATYYCHQYHRSPPTFGAGTKLELKRADAA
B2: gsLOV (antibody)
chain: MAQIQLVQSGPELKKPGETVKISCKASGYTFTDYSMHWVKQAPGKGLKWMDWINTETGVPTYADDFKGRFAFSLETSANTAYLQINDLKNEDTATYFCTRGYGKGYFDVWGAGTTVTVSSAKSTPPSVYPLAPGSGGGGSGEFLATTLERIEKNFVITDPRLPDNPIIFASDSFLQLTEYSREEILGRNCRFLQGPETDRATVRKIRDAIDNQTEVTVQLINYTKSGKKFWNLFHLQPMRDQKGDVQYFIGVQLDGTEHVRDAAEREAVMLIKKTAEEIDEAAKELGGGGSQIVLTQSPTIMSASLGERVTMTCTASSSVSSSYLHWYQQKPGSSPKLWIYSTSNLASGVPARFSGSGSGTSYSLTISSMEAEDAATYYCHQYHRSPPTFGAGTKLELKRADAAKL
B3: gsLOV I272E, A276E "light" (antibody)
chain: B2 chain with I272E, A276E
B4: gsLOV C190A "dark" (antibody)
chain: B2 chain with C190A
B5: nolinkLOV C185A "dark" (antibody)
chain: MAQIQLVQSGPELKKPGETVKISCKASGYTFTDYSMHWVKQAPGKGLKWMDWINTETGVPTYADDFKGRFAFSLETSANTAYLQINDLKNEDTATYFCTRGYGKGYFDVWGAGTTVTVSSAKSTPPSVYPLAPGSGEFLATTLERIEKNFVITDPRLPDNPIIFASDSFLQLTEYSREEILGRNARFLQGPETDRATVRKIRDAIDNQTEVTVQLINYTKSGKKFWNLFHLQPMRDQKGDVQYFIGVQLDGTEHVRDAAEREAVMLIKKTAEEIDEAAKELQIVLTQSPTIMSASLGERVTMTCTASSSVSSSYLHWYQQKPGSSPKLWIYSTSNLASGVPARFSGSGSGTSYSLTISSMEAEDAATYYCHQYHRSPPTFGAGTKLELKRADAAKL
B6: nolinkLOV (antibody)
chain: B5 chain with A185C
B7: nolinkLOV I267E, A271E "light" (antibody)
chain: B5 chain with A185C, I267E, A271E

These results are taken from patent US20260297181 (published 2026).

Numbering of substitutions follows the chain as printed. Names may count otherwise.

The target in one experiment is T1, insulin (human, UniProt P01308). Nature of the experiment: BLI.
T1 sequence (P01308 25-54, chain 1 of 2): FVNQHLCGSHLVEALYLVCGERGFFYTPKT
T1 sequence (P01308 90-110, chain 2 of 2): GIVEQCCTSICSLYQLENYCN
In turn, B1 gave a dissociation constant (Kd) of 55.2 nM.
The molecule B2 registered a Kd of 100 nM.
Turning to B3, the affinity, expressed as Kd, was 63.8 nM.
Molecule B4 yielded a Kd of 104 nM.

In another experiment the target is T1, insulin. Nature of the experiment: BLI. This is another data set of the same source.
For B1, the equilibrium dissociation constant (Kd) came to 55.2 nM.
B5 registered a Kd of 198 nM.
Turning to B6, the dissociation constant Kd was found to be 78.5 nM.
Still for that read-out and setting: the same measure for B7: 68.7 nM.
